The target of data set [1] is T1, HBV Cp149His monomer (Cp149-6xHis half-dimer) (hepatitis B virus (HBV), UniProt P03147 1-149).
T1 construct: also called Cp149His6; CpHis monomer
As to the kind of experiment: native mass spectrometry of the purified co-expressed protein; also a single SEC peak at the dimer position and about equal SDS-PAGE bands.

Data set [2] concerns the molecule itself. As to the kind of experiment: SEC of capsid assembly at 300 mM NaCl.
Data set [3] deals with T2, HBV Cp150 homodimer (hepatitis B virus (HBV), UniProt P03147 1-149).
T2 chain: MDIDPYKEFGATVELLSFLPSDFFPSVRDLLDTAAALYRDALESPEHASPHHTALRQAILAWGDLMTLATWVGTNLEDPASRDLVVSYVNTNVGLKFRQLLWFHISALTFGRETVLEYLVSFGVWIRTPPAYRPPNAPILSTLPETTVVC
As to the kind of experiment: negative-stain EM.

Data set [4] concerns the molecule itself. As to the kind of experiment: Ni2+-driven assembly (10 uM heterodimer, 100 uM NiCl2, low ionic strength); SEC, CDMS, negative-stain EM.
In data set [5] the target is T2, HBV Cp150 homodimer. Description: co-assembly at 300 mM NaCl, SEC.

B1: HBV Cp149Y132A monomer (Cp149-Y132A half-dimer) (other)
chain: MDIDPYKEFGATVELLSFLPSDFFPSVRDLLDTAAALYRDALESPEHCSPHHTALRQAILCWGDLMTLATWVGTNLEDPASRDLVVSYVNTNVGLKFRQLLWFHISCLTFGRETVLEYLVSFGVWIRTPPAARPPNAPILSTLPETTVV
On to B1, for which the binding result in data set [1] is given as “binds”.

B2: HBV Cp149 homodimer (wild-type assembly domain) (other)
chain: MDIDPYKEFGATVELLSFLPSDFFPSVRDLLDTAAALYRDALESPEHCSPHHTALRQAILCWGDLMTLATWVGTNLEDPASRDLVVSYVNTNVGLKFRQLLWFHISCLTFGRETVLEYLVSFGVWIRTPPAYRPPNAPILSTLPETTVV
notes: also called wild-type homodimer Cp149
Turning to B2, in data set [2], the binding result is reported as “binds”.

B3: heterodimer Cp149HisCp149Y132A (other)
chain 1: MDIDPYKEFGATVELLSFLPSDFFPSVRDLLDTAAALYRDALESPEHCSPHHTALRQAILCWGDLMTLATWVGTNLEDPASRDLVVSYVNTNVGLKFRQLLWFHISCLTFGRETVLEYLVSFGVWIRTPPAYRPPNAPILSTLPETTVVHHHHHH
chain 2: MDIDPYKEFGATVELLSFLPSDFFPSVRDLLDTAAALYRDALESPEHCSPHHTALRQAILCWGDLMTLATWVGTNLEDPASRDLVVSYVNTNVGLKFRQLLWFHISCLTFGRETVLEYLVSFGVWIRTPPAARPPNAPILSTLPETTVV
notes: also called Cp149His6Cp149Y132A; asymmetric heterodimer
Consider B3, for which the binding result in data set [3] and in data set [4] was “binds” in each case.

B4: Cp149HisCp149Y132A hexamer (hexamer of heterodimers assembled with Ni2+) (other)
chain 1: MDIDPYKEFGATVELLSFLPSDFFPSVRDLLDTAAALYRDALESPEHCSPHHTALRQAILCWGDLMTLATWVGTNLEDPASRDLVVSYVNTNVGLKFRQLLWFHISCLTFGRETVLEYLVSFGVWIRTPPAYRPPNAPILSTLPETTVVHHHHHH
chain 2: MDIDPYKEFGATVELLSFLPSDFFPSVRDLLDTAAALYRDALESPEHCSPHHTALRQAILCWGDLMTLATWVGTNLEDPASRDLVVSYVNTNVGLKFRQLLWFHISCLTFGRETVLEYLVSFGVWIRTPPAARPPNAPILSTLPETTVV
notes: also called heterodimer hexamer; hexamers
As to B4, the binding result in data set [5] is given as “binds”.

Source of the values: patent US20230083273A1 (TRUSTEES OF INDIANA UNIVERSITY, published 2023).
